The record followed here is PMC10514044, “Structural basis of the activation of TRPV5 channels by long-chain acyl-Coenzyme-A” (Nature Communications, 2023).

The data set deals with the molecule itself. As to the kind of experiment: cryo-EM structure; TRPV5 in lipid nanodiscs (MSP2N2, soy polar lipids), incubated with 400 uM oleoyl-CoA or 400 uM diC8-PI(4,5)P2 for 45 min; 20 mM HEPES pH 8.0, 150 mM NaCl, 2 mM TCEP; C4 symmetry imposed.

B1: full-length rabbit TRPV5 (natural protein, UniProt Q9XSM3 1-730, looked up)
chain: MGACPPKAKGPWAQLQKLLISWPVGEQDWEQYRDRVNMLQQERIRDSPLLQAAKENDLRLLKILLLNQSCDFQQRGAVGETALHVAALYDNLEAATLLMEAAPELAKEPALCEPFVGQTALHIAVMNQNLNLVRALLARGASVSARATGAAFRRSPHNLIYYGEHPLSFAACVGSEEIVRLLIEHGADIRAQDSLGNTVLHILILQPNKTFACQMYNLLLSYDEHSDHLQSLELVPNHQGLTPFKLAGVEGNTVMFQHLMQKRKHVQWTCGPLTSTLYDLTEIDSWGEELSFLELVVSSKKREARQILEQTPVKELVSFKWKKYGRPYFCVLASLYILYMICFTTCCIYRPLKLRDDNRTDPRDITILQQKLLQEAYVTHQDNIRLVGELVTVTGAVIILLLEIPDIFRVGASRYFGQTILGGPFHVIIITYASLVLLTMVMRLTNMNGEVVPLSFALVLGWCSVMYFARGFQMLGPFTIMIQKMIFGDLMRFCWLMAVVILGFASAFHITFQTEDPNNLGEFSDYPTALFSTFELFLTIIDGPANYSVDLPFMYCITYAAFAIIATLLMLNLFIAMMGDTHWRVAQERDELWRAQVVATTVMLERKMPRFLWPRSGICGYEYGLGDRWFLRVENHHDQNPLRVLRYVEAFKCSDKEDGQEQLSEKRPSTVESGMLSRASVAFQTPSLSRTTSQSSNSHRGWEILRRNTLGHLNLGLDLGEGDGEEVYHF
notes: TRPV5, rabbit, full length, in a YepM vector; also called Transient receptor potential vanilloid 5; TRPV5_(CoA Open)
On to B1, for which the binding result was “binds”.
